In publication PMC7272460, “Structural and functional evidence of bacterial antiphage protection by Thoeris defense system via NAD^+ degradation” (Nature Communications, 2020):
Substitutions are numbered along the chain they refer to. Names may count otherwise. “And” between values parts separate entries of the source, which are not always exact repeats. Equal values may be shown once.

How the values were obtained:
[1] = system: NC(=O)c1ccc[n+]([C@@H]2O[C@H](COP(=O)(O)OP(=O)(O)OC[C@H]3O[C@@H](n4cnc5c(N)ncnc54)[C@H](O)[C@@H]3O)[C@@H](O)[C@H]2O)c1; assay: purified protein; assay type: biochemical, Bacillus cereus; conditions: 2.0 μM ThsA, 63 mM NaCl, 14 mM Tris-HCl pH 7.5, 25 °C
[2] = target: the molecule itself; assay: SEC-MALS; Superdex 200 Increase 10/300 GL, 200 mM NaCl, 2 mM DTT, 20 mM HEPES pH 7.5, 25 °C; ThsA loaded at 11 mg/mL, ThsB at 24 mg/mL (~1 mM)
[3] = target: the molecule itself; assay: crystal structure; ThsA crystals, sitting drop, 20 °C, 22% polypropylene glycol 400, 0.2 M MgCl2, 0.1 M MES pH 6.5; 2.5 Å; four protomers in the asymmetric unit
[4] = target: the molecule itself; assay: SEC; analytical SEC of single ThsA proteins (wild type, N112A, H152A) to compare the oligomeric state; Superdex 200 10/300 GL, 150 mM NaCl, 1 mM DTT, 20 mM HEPES pH 7.5

Molecule ThsA (Bacillus cereus MSX-D12) has a Km [1] of 270 µM and a kcat [1] of 0.565 s⁻¹.

B1: ThsA of the Bacillus cereus MSX-D12 Thoeris defense system, wild type (enzyme)
chain: MNPIVELFIKDFTKEVMEENAAIFAGAGLSMSVGYVSWAKLLEPIAQEIGLDVNKENDLVSLAQYYCNENQGNRGRINQIILDEFSRKVDLTENHKILARLPIHTYWTTNYDRLIEKALEEENKIADVKYTVKQLATTKVKRDAVVYKMHGDVEHPSEAVLIKDDYEKYSIKMDPYIKALSGDLVSKTFLFVGFSFTDPNLDYILSRVRSAYERDQRRHYCLIKKEERRPDELEADFEYRVRKQELFISDLSRFNIKTIVLNNYNEITEILQRIENNIKTKTVFLSGSAVEYNHWETEHAEQFIHQLSKELIRKDFNIVSGFGLGVGSFVINGVLEELYMNQGTIDDDRLILRPFPQGKKGEEQWDKYRRDMITRTGVSIFLYGNKIDKGQVVKAKGVQSEFNISFEQNNYVVPVGATGYIAKDLWNKVNEEFETYYPGADARMKKLFGELNNEALSIEELINTIIEFVEILSN
notes: ThsA, Bacillus cereus MSX-D12, synthetic thsA gene in pET28a; the structure has an N-terminal sirtuin-like domain (residues 1-283) and a C-terminal SLOG-like domain (residues 284-476); The synthetic thsA gene was cloned; Predominantly a tetramer by SEC-MALS, with a trace of octamer; also called B. cereus ThsA; wild-type ThsA; source: E. coli BL21(DE3), purified (HisTrap, TEV cleavage, second …)
With B1 the “stoichiometry N” value [2] was 4 and 8.

B2: selenomethionyl ThsA of Bacillus cereus MSX-D12 (crystallised) (enzyme)
chain: B1 chain
modifications: selenomethionine at seven of eight possible Met sites
notes: ThsA, Bacillus cereus MSX-D12, synthetic thsA gene in pET28a; N-terminal sirtuin-like domain (residues 1-283) and C-terminal SLOG-like domain (residues 284-476) in the structure; Four protomers (chains A-D) in the asymmetric unit; The methods describe only selenomethionyl protein before the crystallisation; that the deposited structure is of this form is inferred; also called selenomethionyl …
B2: binds [3].

B3: ThsA N112A mutant (enzyme)
chain: B1 chain with N110A
notes: ThsA, Bacillus cereus MSX-D12, synthetic thsA gene in pET28a, point mutant made by PCR with mismatched primers; source: E. coli BL21(DE3), purified; not shown: His6, N-terminal, cleaved; MBP, N-terminal, cleaved
B3: binds [4].
